# Earlier results as cited in publication PMC3428507.
# Molecular target: Pf1 MBD (Homo sapiens) (UniProt Q96QT6)
# Sequence (Q96QT6 200-241): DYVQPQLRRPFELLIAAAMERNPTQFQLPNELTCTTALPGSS
# Chain of MRG15 MRG (Q9UBU8 188-362): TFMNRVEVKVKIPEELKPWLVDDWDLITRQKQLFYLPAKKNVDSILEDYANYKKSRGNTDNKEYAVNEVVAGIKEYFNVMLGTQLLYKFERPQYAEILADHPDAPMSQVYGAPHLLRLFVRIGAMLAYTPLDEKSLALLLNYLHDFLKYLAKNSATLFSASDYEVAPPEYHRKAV
substance,measurement,value
MRG15 MRG (from UniProt Q9UBU8),Kd,15 nM
